Where two headings read alike, the source gives them in different places.
Assays:
[1] = biological target: T1, Loqs-PDΔNC (Drosophila melanogaster, UniProt Q9VJY9-4 129-322); assay: NMR PRE
T1 sequence: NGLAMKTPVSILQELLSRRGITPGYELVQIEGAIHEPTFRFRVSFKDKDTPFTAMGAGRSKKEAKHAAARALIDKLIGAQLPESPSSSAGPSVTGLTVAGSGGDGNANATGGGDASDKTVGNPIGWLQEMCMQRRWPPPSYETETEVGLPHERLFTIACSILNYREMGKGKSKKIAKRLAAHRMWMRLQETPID

[2] = biological target: T1, Loqs-PDΔNC; assay: fluorescence anisotropy
[3] = biological target: T2, Loqs dsRBD2 (Drosophila melanogaster, UniProt Q9VJY9-4 245-322); assay: fluorescence anisotropy
T2 sequence: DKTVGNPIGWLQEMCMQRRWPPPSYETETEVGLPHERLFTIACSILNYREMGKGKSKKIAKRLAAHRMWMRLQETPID

[4] = biological target: T3, Loqs-PD (Drosophila melanogaster, UniProt Q9VJY9-4 1-359); assay: fluorescence anisotropy
T3 sequence: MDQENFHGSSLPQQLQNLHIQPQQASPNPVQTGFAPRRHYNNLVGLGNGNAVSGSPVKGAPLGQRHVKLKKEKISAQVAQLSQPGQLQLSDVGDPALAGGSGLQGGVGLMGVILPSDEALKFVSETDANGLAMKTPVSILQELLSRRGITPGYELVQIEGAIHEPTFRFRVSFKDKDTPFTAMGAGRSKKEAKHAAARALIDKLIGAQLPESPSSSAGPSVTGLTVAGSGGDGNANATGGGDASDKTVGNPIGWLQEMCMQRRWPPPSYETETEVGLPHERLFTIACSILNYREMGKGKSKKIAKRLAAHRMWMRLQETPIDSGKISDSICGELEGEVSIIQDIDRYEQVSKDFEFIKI

[5] = biological target: T4, Loqs dsRBD1 (Drosophila melanogaster, UniProt Q9VJY9-4 129-211); assay: fluorescence anisotropy
T4 sequence: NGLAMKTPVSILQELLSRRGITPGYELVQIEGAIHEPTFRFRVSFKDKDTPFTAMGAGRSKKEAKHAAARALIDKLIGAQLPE

[6] = biological target: Dcr-2 (Drosophila melanogaster, UniProt A1ZAW0 1-1722); assay: 4-thioU UV cross-linking
[7] = biological target: T2, Loqs dsRBD2; assay: 4-thioU UV cross-linking
[8] = biological target: T4, Loqs dsRBD1; assay: 4-thioU UV cross-linking
[9] = biological target: T1, Loqs-PDΔNC; assay: 4-thioU UV cross-linking
[10] = biological target: T3, Loqs-PD; assay: 4-thioU UV cross-linking
[11] = biological target: T5, Dcr-2;Loqs-PD (Drosophila melanogaster;Drosophila …, UniProt A1ZAW0;Q9VJY9-4 1-1722;1-359, |); assay: 4-thioU UV cross-linking
[12] = biological target: T1, Loqs-PDΔNC; assay: NMR
[13] = biological target: T5, Dcr-2;Loqs-PD; assay: 4-thioU UV cross-linking; remark: listed apart in the source
[14] = biological target: T1, Loqs-PDΔNC; assay: fluorescence anisotropy and EMSA
[15] = biological target: T2, Loqs dsRBD2; assay: fluorescence anisotropy and EMSA
[16] = biological target: T1, Loqs-PDΔNC; assay: NMR PRE; remark: listed apart in the source
[17] = biological target: T1, Loqs-PDΔNC; assay: NMR titration
[18] = biological target: T2, Loqs dsRBD2; assay: NMR titration
[19] = biological target: T4, Loqs dsRBD1; assay: NMR titration
[20] = biological target: T6, Loqs-PDΔNC Δ41 (Drosophila melanogaster, UniProt Q9VJY9-4 129-322, del209-249); assay: NMR titration
T6 sequence: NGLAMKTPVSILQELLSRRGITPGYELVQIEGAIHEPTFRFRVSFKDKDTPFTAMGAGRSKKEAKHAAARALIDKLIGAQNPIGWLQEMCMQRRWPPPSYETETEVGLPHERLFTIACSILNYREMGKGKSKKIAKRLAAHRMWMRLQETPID

T5 sequence (A1ZAW0 whole entry, one chain of several): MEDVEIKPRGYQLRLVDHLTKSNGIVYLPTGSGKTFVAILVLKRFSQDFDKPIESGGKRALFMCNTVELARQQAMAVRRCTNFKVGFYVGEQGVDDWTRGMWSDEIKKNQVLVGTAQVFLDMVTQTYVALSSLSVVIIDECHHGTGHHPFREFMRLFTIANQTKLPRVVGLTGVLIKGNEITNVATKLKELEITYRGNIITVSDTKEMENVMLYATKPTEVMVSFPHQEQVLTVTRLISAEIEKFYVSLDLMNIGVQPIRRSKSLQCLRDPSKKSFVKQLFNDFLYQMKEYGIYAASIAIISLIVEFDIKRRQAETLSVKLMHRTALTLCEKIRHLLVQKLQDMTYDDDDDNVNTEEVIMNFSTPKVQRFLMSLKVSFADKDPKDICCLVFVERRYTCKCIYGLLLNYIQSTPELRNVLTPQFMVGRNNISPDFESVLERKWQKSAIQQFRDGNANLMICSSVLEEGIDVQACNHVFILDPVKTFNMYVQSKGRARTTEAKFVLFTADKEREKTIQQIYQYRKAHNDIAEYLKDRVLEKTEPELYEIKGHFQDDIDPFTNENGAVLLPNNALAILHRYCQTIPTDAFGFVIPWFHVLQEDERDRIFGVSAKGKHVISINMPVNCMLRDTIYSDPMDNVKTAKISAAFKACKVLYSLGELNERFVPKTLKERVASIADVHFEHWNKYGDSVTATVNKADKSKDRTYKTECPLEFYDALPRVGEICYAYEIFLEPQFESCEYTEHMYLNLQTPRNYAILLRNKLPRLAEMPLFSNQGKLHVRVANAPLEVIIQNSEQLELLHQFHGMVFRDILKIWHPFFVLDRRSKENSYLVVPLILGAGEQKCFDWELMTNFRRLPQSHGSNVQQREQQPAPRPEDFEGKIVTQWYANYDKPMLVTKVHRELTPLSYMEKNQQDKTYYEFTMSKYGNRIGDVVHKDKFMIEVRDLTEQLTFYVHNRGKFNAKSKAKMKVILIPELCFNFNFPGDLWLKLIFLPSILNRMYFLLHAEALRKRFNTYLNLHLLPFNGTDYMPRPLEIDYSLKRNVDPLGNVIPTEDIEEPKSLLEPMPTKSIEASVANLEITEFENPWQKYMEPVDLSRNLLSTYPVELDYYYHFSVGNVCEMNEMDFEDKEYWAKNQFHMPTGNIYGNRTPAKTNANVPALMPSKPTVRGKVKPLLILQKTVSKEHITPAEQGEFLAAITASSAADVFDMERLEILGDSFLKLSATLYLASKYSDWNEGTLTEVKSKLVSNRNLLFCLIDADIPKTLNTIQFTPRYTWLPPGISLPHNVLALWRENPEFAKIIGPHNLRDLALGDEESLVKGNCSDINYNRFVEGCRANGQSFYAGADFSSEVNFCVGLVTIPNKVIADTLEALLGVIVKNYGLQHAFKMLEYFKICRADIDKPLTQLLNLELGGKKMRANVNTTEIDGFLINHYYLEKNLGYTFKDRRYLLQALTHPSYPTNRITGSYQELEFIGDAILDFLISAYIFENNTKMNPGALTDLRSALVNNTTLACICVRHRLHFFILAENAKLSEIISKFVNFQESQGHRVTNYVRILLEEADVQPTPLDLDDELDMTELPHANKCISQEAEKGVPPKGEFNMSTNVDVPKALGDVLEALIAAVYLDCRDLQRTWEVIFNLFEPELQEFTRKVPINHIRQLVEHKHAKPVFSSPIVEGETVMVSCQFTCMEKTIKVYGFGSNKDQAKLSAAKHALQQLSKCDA
Chain of Dcr-2 (A1ZAW0 whole entry): as the sequence (A1ZAW0 whole entry, one chain of several) above

B1: highly asymmetric siRNA, TEMPO (dsRNA)
RNA 1: GUAACUUUCAAAAUGAGCGCCUU
RNA 2: GGCGCUCAUUUUGAAAGUUACUU
modifications: TEMPO at either 5' end
[1]
  binding result: binds

B2: bantam miRNA/miRNA*, FITC (dsRNA)
RNA 1: UGAGAUCAUUUUGAAAGCUGAUU
RNA 2: UCGGUUUUCGAUUUGGUUUGACU
modifications: 5'-phosphate
[2]
  Kd: 97 ± 21 nM
[3]
  Kd: 241 ± 75 nM
[4]
  Kd: 118 ± 17 nM
[5]
  Kd: 233 ± 17 nM

B3: 14 nt RNA, FITC (dsRNA)
RNA 1: UGAGAUCAUUUUGA
RNA 2: UCAAAAUGAUCUCAUU
modifications: 5'-phosphate
[2]
  Kd: 128 ± 41 nM
[3]
  Kd: 334 ± 8 nM
[4]
  Kd: 118 ± 15 nM
[5]
  Kd: 365 ± 62 nM

B4: ban-siRNA, FITC (dsRNA)
RNA 1: UGAGAUCAUUUUGAAAGCUGAUU
RNA 2: UCAGCUUUCAAAAUGAUCUCACU
modifications: 5'-phosphate
[2]
  Kd: 82 ± 21 nM
[3]
  Kd: 278 ± 24 nM
[4]
  Kd: 50 ± 6 nM
[5]
  Kd: 228 ± 27 nM

B5: ban-siRNA, 4-thioU series (dsRNA)
RNA 1: UCAGCUUUCAAAAUGAUCUCACU
RNA 2: UGAGAUCAUUUUGAAAGCUGAUU
modifications: one 4-thiouridine per duplex, position varied; 5'-phosphate
[6]
  binding result: binds
[7]
  binding result: binds
[8]
  binding result: binds
[9]
  binding result: binds
[10]
  binding result: binds
[11]
  binding result: binds

B6: ban-siRNA GG variant, isotope-labeled (dsRNA)
RNA 1: GGAGCUUUCAAAAUGAUCUCCUU
RNA 2: GGAGAUCAUUUUGAAAGCUCCUU
[12]
  binding result: binds

B7: nicked siRNA, passenger nicked, 4-thioU (dsRNA)
RNA 1: UGAGAUCAUUUUGAAAGCUGAUU
RNA 2: UCAGCUUUCAA
RNA 3: AAUGAUCUCACU
modifications: nick 11/12; 4-thiouridine in intact strand
[13]
  binding result: binds

B8: nicked siRNA, FITC (dsRNA)
RNA 1: UGAGAUCAUUUUGAAAGCUGAUU
RNA 2: UCAGCUUUCAA
RNA 3: AAUGAUCUCACU
modifications: nick between 11 and 12 of S1 strand; 5'-phosphate
[14]
  binding result: binds
[15]
  binding result: binds

B9: ban-siRNA GG variant, TEMPO (dsRNA)
RNA 1: GGAGCUUUCAAAAUGAUCUCCUU
RNA 2: GGAGAUCAUUUUGAAAGCUCCUU
modifications: TEMPO at either 5' end (G1 or G24)
[16]
  binding result: binds

B10: 35 nt dsRNA, FITC (dsRNA)
RNA 1: GAUUCAUACAAGUGAGAUCAUUUUGAAAGCUGAUU
RNA 2: UCAGCUUUCAAAAUGAUCUCACUUGUAUGAAUCAA
modifications: 5'-phosphate
[2]
  Kd: 86 ± 18 nM
[3]
  Kd: 229 ± 48 nM
[4]
  Kd: 62 ± 5 nM
[5]
  Kd: 191 ± 29 nM

B11: ban-siRNA, unlabeled (dsRNA)
RNA 1: UCAGCUUUCAAAAUGAUCUCACU
RNA 2: UGAGAUCAUUUUGAAAGCUGAUU
[17]
  binding result: binds
[18]
  binding result: binds
[19]
  binding result: binds
[20]
  binding result: binds
